# Results from patent publication US20240084003A1 (SIMCERE ZAIMING PHARMACEUTICAL, published 2024).
# Where a chain is given by its changes, count along the chain named.
# B1: F2.343.16 (antibody, human IgG1, lambda, V domains shown)
# VH: QVQLKQSGPGLVQPSQSLSITCTVSGFSLTGYGVQWVRQSPGKGLEWLGVIWGGGGTDYNAAFISRLNIIKDNSKSQVFFKMNSLQADDTAIYYCARYSKYGHFDVWGTGTAVTVSS
# VL: QAVVTQESALTTSPGETVTLTCRSSTGAVTTSNYANWVQEKPDHLFTGLIGGTYNRVPGVPARFSGSLIGDKAALTITGAQTEDEAIYFCALWYSNHFWVFGGGTKLTVLG
# notes: Chimeric IgG1 lambda
# B2: F1.231.15 (antibody, IgG1, V domains shown)
# VH: QVQLQQPGAELVKPGASVKLSCKTSGYTFTIYWMQWVKQRPGRGLEWIGRIDPHSGDTHYNENFTTKVTLTVDETSNTAYMHLSGLTSEDSAVYYCARRDYSYYVLDYWGQGTSVTVSS
# VL: DVVLTQTPLSLPVSLGDQASISCRSSQSLVHINGDTYLHWYLQKPGQSPKLLIYTVFNRFSGVPDRFSGSGSGTDFTLKISRVEAEDLGAYFCSQSTHVPYTFGGGTKLEIKR
# notes: Chimeric IgG1 kappa
# B3: F1.280.1 (antibody, human IgG1, kappa, V domains shown)
# VH: QIQLVQSGPELKKPGETVKISCKASGYTFTTYGMSWVKQTPGKGLTWMGWINTDSGVPTYADDFKRRFAFSLEASATTAYLQINNLKNEDTATYFCARGGPDYWGQGTTLTVSS
# VL: DILLTQSPATLSVTPGETVSLSCRASQSIYKNLHWYHQKSHRSPRLLIKYASDSISGIPSRFTGSGSGTNFTLSINSVKPEDEGIYYCLQGYIVPLTFGAGTKLELKR
# notes: Chimeric IgG1 kappa
# B4: F1.7.6 (antibody, human IgG1, kappa, V domains shown)
# VH: EIQLQQSGPELVKPGTSVKVSCKASGYDFTRYNMYWVKQSHGKSLEWIGYIDPYNGDTRYNQKFKGKATLTVDKSSSTAYMHLNSLTSEDSAVYYCEAIYYDMEGYALDYWGQGTSVTVSS
# VL: DIVMSQSPSSLAVSVGEKVTMSCKSSQSLLYSNNQKNYLAWYQQKPGQSPKKLIYWASTRESGVPDRLTGSGSGTDFTLTISSVTAEDLAVYYCQQFYSYPWTFGGGTKLEIKR
# notes: Chimeric IgG1 kappa
# B5: F1.161.7 (antibody, human IgG1, kappa, V domains shown)
# VH: QVQLQQPGAELVKPGASVKMSCKASGYTFTSYWISWVKQRPGQGLEWIGDIYPGTGSSNYNEKFKSKATLTVDTSSSTAYMQLSSLTSEDSAVYYCARLKFEGIGYWGQGTTLTVSS
# VL: QIVLTQSPAIMSASLGEEITLTCSASSSVSYMHWFQQKSGTSPKLLIYSISNLASGVPSRFSGSGSGTFYSLTISSVEAEDAADYYCHQWSSYPWTFGGGTKLEIKR
# notes: Chimeric IgG1 kappa
# B6: F2.70.2 (antibody, human IgG1, lambda, V domains shown)
# VH: EVQLVESGGGLVKPGGSLKLSCAASGFTFSDYGMNWFRQAPEKGLEWVAYISRGSHTIYYADTVKGRFTISRDNAKNTLFLQMTSLRSNDTAMYYCVRMAGYYAMDYWGQGTSVTVSS
# VL: QLVLTQSSSASFSLGASAKLTCTLSSQHSSYIIEWYQQQPLKPPKYVMELKKDGSHSTGDGIPDRFSGSSSGADRYLSISNIQPEDEAIYICGVGDTIKEQFVYVFGGGTKVTVLG
# notes: Chimeric IgG1 lambda
# B7: F2.127.11 (antibody, human IgG1, lambda, V domains shown)
# VH: QVTLKESGPGILQPSQTLSLTCSFSGFSLSTFGMGVGWIRQPSGKGLEWLAHIWWDDDKHYNPALKSRLTISKDTSRNQVFLKIANVDTADGATYFCARDNWVSSLDYWGQGTSVIVSS
# VL: B6 VL with L2P, L4I, K19E, S30T, I32T, E49G, G95S
# notes: Chimeric IgG1 lambda
# B8: F2.104.10 (antibody, human IgG1, lambda, V domains shown)
# VH: B6 VH with L11F, K76E, V114L
# VL: B6 VL with L50V, P84S
# notes: Chimeric IgG1 lambda
# B9: F1.245.2 (antibody, human IgG1, kappa, V domains shown)
# VH: EVQLQQSGAELVKPGASVKLSCTGSGFNIKDYYIHWVKQRTEQGLEWMGRIDPEDGETEYAPKFQDEATITSDTSSNTAYLQLSSLTYEDTAVYYCAREAAGYFYRGSSYGYFDVWGTGTTVTVSS
# VL: DFQMTQTTSFLSASLGDRVTISCSASQDISNYLNWYQQKPDGTVKLLIYYTSSLHSGVPSRFSGSGSGTDYSLTISNLEPEDIATYYCQQYSMLPYTFGGGTKLEMER
# notes: Chimeric IgG1 kappa
# B10: F1.62.10 (antibody, human IgG1, kappa, V domains shown)
# VH: QVQLQQSGPELVKPGASVKISCKASGYEFSSIWMNWVKQRPGEGLEWIGRIFPGDGEINYNEKFKGKATLTADRSSTTAYMQLSSLTSEDSAVYFCAGWRIYYGTYGAMDYWGQGTSVTVSS
# VL: DIQMTQITSSLSASLGDRVTISCRASQDIGNYLNWYQQKPDGTVKLLIYYTSRLHSGVPSRFSGSGSRTDYSLTISNLQQEDIATYFCQQGNTLPWTFGGGTKLEIKR
# notes: Chimeric IgG1 kappa
# B11: F2.55.1 (antibody, human IgG1, lambda, V domains shown)
# VH: QVTLKESGPGILQPSQTLSLTCSFSGFSLSTFPLGVGWIRQPSGKGLEWLAHVWWNDDDYYNPALKSRLTISKDTSNTRVFLSVASVDTAETATYYCARLNWDRWYFDVWGTGTTVTVSS
# VL: QLVLTQSSSASFSLGASAKLTCTLSSQHSAYTVEWYQQQPLKPPKYVMELKKDGSHSTGDGIPDRFSGSSSGADRYLSISNIQPEDEAIYICGVGDTVKEQFVFGGGTKVTVLG
# notes: Chimeric IgG1 lambda
# B12: F2.42.9 (antibody, human IgG1, lambda, V domains shown)
# VH: QVTLKESGPGILQPSQTLSLTCSFSGFSLSTFDRGVGWIRQPSGKGLEWLAHIWWNDKKFYNPVLKSRLTISKDTSKNQVFLTIANVDSADTATYSCARIVWDKYYFDYWGQGIPLTVSS
# VL: B11 VL with V33I, Y46F, E49D, D64A, S78T, V98I, F102Y
# notes: Chimeric IgG1 lambda
# B13: F2.121.9 (antibody, human IgG1, lambda, V domains shown)
# VH: EVQLVESGGGLVKPGGSLKLSCAASGFTFSDYVMSWIRQTPEKRLEWVATISDAGSYTFYPDNLKGRFTISRDNAKNNLYLQMNHLTSEDTAFYYCAIIYFGNYGGYWGQGTLVTVSV
# VL: QAVVTQESALTTSPGGTVVLTCRSNTGAVTTSNYANWVQEKPDHLFTGLIGGTSNRAPGVPVRFSGSLIGDKAALTITGAQTEDDAMYFCALWYSTHWVFGGGTKLTVLG
# notes: Chimeric IgG1 lambda
# B14: F1.257.3 (antibody, human IgG1, kappa, V domains shown)
# VH: QVQLQQSGPELARPGASVKLSCKASGYTFTSYGISWVKQRTGQDLEWIGEIYPKLGTTYYNEKFKDKATLTTDRSSSTAYMALRSLTSEDSAVYFCACPHYYATRGGDYWGQGTTLTVSS
# VL: EIVLTQSPATLSVTPGDSVTFSCRASQSISNHLHWYQQKSHESPRLLIRYASQSISGIPSRFSGSGSGTDFTLSLSSVETEDFGVYFCQQSHSWPYTFGGGTKLEIAR
# notes: Chimeric IgG1 kappa
# Assays:
# [1] = target: T1, human CD22-ECD-His protein (human, UniProt P20273 20-687); assay: SPR (Biacore), antibody captured on Protein A chip, CD22-ECD-His in solution
# T1 construct: Recombinant, from HEK293E cells; also called hCD22-ECD-His; human CD22-His protein; not shown: His tag
# T1 sequence: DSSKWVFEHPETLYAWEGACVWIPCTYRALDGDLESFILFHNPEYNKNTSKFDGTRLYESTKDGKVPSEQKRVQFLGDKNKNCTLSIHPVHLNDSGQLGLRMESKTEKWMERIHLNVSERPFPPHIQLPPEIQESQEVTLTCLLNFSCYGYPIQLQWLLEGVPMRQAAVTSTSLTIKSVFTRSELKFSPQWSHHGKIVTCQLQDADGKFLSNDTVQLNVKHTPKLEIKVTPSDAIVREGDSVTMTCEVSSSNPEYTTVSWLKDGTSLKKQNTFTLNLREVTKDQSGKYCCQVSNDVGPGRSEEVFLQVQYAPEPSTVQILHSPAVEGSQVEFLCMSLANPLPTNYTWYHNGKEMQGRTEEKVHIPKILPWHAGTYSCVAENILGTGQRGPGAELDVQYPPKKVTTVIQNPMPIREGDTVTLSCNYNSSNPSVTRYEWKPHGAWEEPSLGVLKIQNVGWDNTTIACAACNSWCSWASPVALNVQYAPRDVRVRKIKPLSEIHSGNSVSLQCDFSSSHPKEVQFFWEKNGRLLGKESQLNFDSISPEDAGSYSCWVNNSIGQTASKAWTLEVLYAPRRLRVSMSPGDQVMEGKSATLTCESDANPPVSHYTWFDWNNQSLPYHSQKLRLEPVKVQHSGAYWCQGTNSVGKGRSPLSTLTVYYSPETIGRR
# Protocol: Sample buffer and running buffer were HBS-EP+(10 mM HEPES, 150 mM NaCl, 3 mM EDTA, 0.05% surfactant P20) (GE Healthcare; BR-1006-69). The flow-through cell was set to 25° C. The sample block was set to 16° C. Both were pretreated with the running buffer. In each cycle, the antibody to be tested was first captured with a Protein A chip, then a single concentration of CD22 antigen protein was injected. The binding and dissociation process of the antibody and the antigen protein was recorded, and finally Glycine pH 1.5 (GE Healthcare; BR-1003-54) was used to complete chip regeneration. Binding was measured by injecting different concentrations of recombinant human CD22-ECD His protein in solution for 240 s with a flow rate of 30 μL/min. The concentration started from 200 nM (see the detailed results for the actual concentration in the test) and was diluted at 1:1, making a total of 5 concentrations. The dissociation phase was monitored for up to 600 s and was triggered by switching from sample solution to running buffer. The surface was regenerated by washing with a 10 mM of glycine solution (pH 1.5) for 30 s at a flow rate of 30 μL/min. Bulk refractive index difference was corrected by subtracting the response obtained from the goat anti-human Fc surface. Blank injection was also subtracted (=double reference). For calculation of apparent KD and other kinetic parameters, Langmuir 1:1 model was used.
# human CD22 domain5-7-His = target: T2, human CD22 domain5-7-His (human, UniProt P20273 414-687); assay: ELISA, plate coated with human CD22 domain5-7-His
# T2 construct: also called hCD22 domain5-7-His; not shown: His tag
# T2 sequence: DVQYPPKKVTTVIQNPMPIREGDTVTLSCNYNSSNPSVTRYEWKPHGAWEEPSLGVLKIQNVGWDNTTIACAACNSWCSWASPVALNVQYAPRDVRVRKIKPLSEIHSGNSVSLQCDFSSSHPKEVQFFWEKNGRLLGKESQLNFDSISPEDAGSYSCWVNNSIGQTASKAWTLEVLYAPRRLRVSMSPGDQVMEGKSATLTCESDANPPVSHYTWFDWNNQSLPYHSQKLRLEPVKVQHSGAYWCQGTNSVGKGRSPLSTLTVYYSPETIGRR
Binder,Kd [1],koff [1],kon [1],binding result (human CD22 domain5-7-His)
B1,4970 nM,0.101 s⁻¹,20400 M⁻¹ s⁻¹,no binding
B2,44.8 nM,–,–,no binding
B3,6.73 nM,0.000423 s⁻¹,62900 M⁻¹ s⁻¹,no binding
B4,1.7 nM,0.000203 s⁻¹,120000 M⁻¹ s⁻¹,no binding
B5,5.88 nM,0.00118 s⁻¹,201000 M⁻¹ s⁻¹,no binding
B6,10.7 nM,0.000744 s⁻¹,69500 M⁻¹ s⁻¹,no binding
B7,2.93 nM,0.00066 s⁻¹,226000 M⁻¹ s⁻¹,no binding
B8,8.54 nM,0.00061 s⁻¹,71400 M⁻¹ s⁻¹,no binding
B9,0.458 nM,0.00119 s⁻¹,2.6e+06 M⁻¹ s⁻¹,no binding
B10,29.3 nM,0.000399 s⁻¹,13600 M⁻¹ s⁻¹,no binding
B11,0.586 nM,7.42e-05 s⁻¹,127000 M⁻¹ s⁻¹,no binding
B12,10 nM,0.000663 s⁻¹,66100 M⁻¹ s⁻¹,no binding
B13,80 nM,0.000393 s⁻¹,4910 M⁻¹ s⁻¹,no binding
B14,0.417 nM,0.000113 s⁻¹,270000 M⁻¹ s⁻¹,no binding
